This assay addresses Streptococcus pyogenes Cas9 (SpCas9) protein, wild type (Streptococcus pyogenes) (UniProt Q99ZW2).

In the case of “M13 phage major coat protein G8P periplasmic domain peptide (M13 G8PPD)”, the inhibition of the in vitro DNA cleavage activity of 50 nM SpCas9, peptide added before sgRNA (IC50) amounted to 5 µM.

The values are drawn from paper PMC7045643, “Allosteric inhibition of CRISPR-Cas9 by bacteriophage-derived peptides” (Genome Biology, 2020).
